The chains are these.
T1: full-length human nephrocystin-5 (NPHP5), yeast two-hybrid fusion (human, UniProt Q15051 1-598)
T1 construct: Full-length NPHP5 cDNA (598 amino acid residues) fused to a GAL4 domain; also called KIAA0036
T1 sequence: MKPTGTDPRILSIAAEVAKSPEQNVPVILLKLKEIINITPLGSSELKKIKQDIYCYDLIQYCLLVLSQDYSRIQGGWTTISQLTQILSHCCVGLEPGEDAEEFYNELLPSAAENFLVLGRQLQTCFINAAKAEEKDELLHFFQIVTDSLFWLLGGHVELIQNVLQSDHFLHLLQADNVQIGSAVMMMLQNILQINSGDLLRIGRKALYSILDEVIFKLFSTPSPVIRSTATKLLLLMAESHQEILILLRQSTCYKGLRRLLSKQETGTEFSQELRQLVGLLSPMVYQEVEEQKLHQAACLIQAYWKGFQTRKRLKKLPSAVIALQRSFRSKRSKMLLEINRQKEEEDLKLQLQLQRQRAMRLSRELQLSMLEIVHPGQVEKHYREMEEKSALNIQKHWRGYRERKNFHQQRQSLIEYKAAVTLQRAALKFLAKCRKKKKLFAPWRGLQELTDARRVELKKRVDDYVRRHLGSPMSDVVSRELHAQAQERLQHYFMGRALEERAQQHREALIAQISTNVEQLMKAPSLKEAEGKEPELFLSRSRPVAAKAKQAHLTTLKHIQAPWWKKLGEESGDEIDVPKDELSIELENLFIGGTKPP

B1: BBS5, human full length, yeast two-hybrid prey (other, UniProt Q8N3I7 1-341, looked up, not shown: large carriers)
chain: MSVLDALWEDRDVRFDLSAQQMKTRPGEVLIDCLDSIEDTKGNNGDRGRLLVTNLRILWHSLALSRVNVSVGYNCILNITTRTANSKLRGQTEALYILTKCNSTRFEFIFTNLVPGSPRLFTSVMAVHRAYETSKMYRDFKLRSALIQNKQLRLLPQEHVYDKINGVWNLSSDQGNLGTFFITNVRIVWHANMNDSFNVSIPYLQIRSIKIRDSKFGLALVIESSQQSGGYVLGFKIDPVEKLQESVKEINSLHKVYSASPIFGVDYEMEEKPQPLEALTVEQIQDDVEIDSDGHTDAFVAYFADGNKQQDREPVFSEELGLAIEKLKDGFTLQGLWEVMS
B2: BBS4, human full length, yeast two-hybrid prey (other, UniProt Q96RK4 1-519, looked up, not shown: large carriers)
chain: MAEERVATRTQFPVSTESQKPRQKKAPEFPILEKQNWLIHLHYIRKDYEACKAVIKEQLQETQGLCEYAIYVQALIFRLEGNIQESLELFQTCAVLSPQSADNLKQVARSLFLLGKHKAAIEVYNEAAKLNQKDWEISHNLGVCYIYLKQFNKAQDQLHNALNLNRHDLTYIMLGKIHLLEGDLDKAIEVYKKAVEFSPENTELLTTLGLLYLQLGIYQKAFEHLGNALTYDPTNYKAILAAGSMMQTHGDFDVALTKYRVVACAVPESPPLWNNIGMCFFGKKKYVAAISCLKRANYLAPFDWKILYNLGLVHLTMQQYASAFHFLSAAINFQPKMGELYMLLAVALTNLEDIENAKRAYAEAVHLDKCNPLVNLNYAVLLYNQGEKKNALAQYQEMEKKVSLLKDNSSLEFDSEMVEMAQKLGAALQVGEALVWTKPVKDPKSKHQTTSTSKPASFQQPLGSNQALGQAMSSAAAYRTLPSGAGGTSQFTKPPSLPLEPEPAVESSPTETSEQIREK
B3: BBS8, human full length, yeast two-hybrid prey (other, UniProt Q8TAM2 1-541, looked up, not shown: large carriers)
chain: MSSEMEPLLLAWSYFRRRKFQLCADLCTQMLEKSPYDQEPDPELPVHQAAWILKARALTEMVYIDEIDVDQEGIAEMMLDENAIAQVPRPGTSLKLPGTNQTGGPSQAVRPITQAGRPITGFLRPSTQSGRPGTMEQAIRTPRTAYTARPITSSSGRFVRLGTASMLTSPDGPFINLSRLNLTKYSQKPKLAKALFEYIFHHENDVKTIHLEDVVLHLGIYPFLLRNKNHIEKNALDLAALSTEHSQYKDWWWKVQIGKCYYRLGMYREAEKQFKSALKQQEMVDTFLYLAKVYVSLDQPVTALNLFKQGLDKFPGEVTLLCGIARIYEEMNNMSSAAEYYKEVLKQDNTHVEAIACIGSNHFYSDQPEIALRFYRRLLQMGIYNGQLFNNLGLCCFYAQQYDMTLTSFERALSLAENEEEAADVWYNLGHVAVGIGDTNLAHQCFRLALVNNNNHAEAYNNLAVLEMRKGHVEQARALLQTASSLAPHMYEPHFNFATISDKIGDLQRSYVAAQKSEAAFPDHVDTQHLIKQLRQHFAML
B4: BBS6, human full length, yeast two-hybrid prey (other, UniProt Q9NPJ1 1-570, looked up, not shown: large carriers)
chain: MSRLEAKKPSLCKSEPLTTERVRTTLSVLKRIVTSCYGPSGRLKQLHNGFGGYVCTTSQSSALLSHLLVTHPILKILTASIQNHVSSFSDCGLFTAILCCNLIENVQRLGLTPTTVIRLNKHLLSLCISYLKSETCGCRIPVDFSSTQILLCLVRSILTSKPACMLTRKETEHVSALILRAFLLTIPENAEGHIILGKSLIVPLKGQRVIDSTVLPGILIEMSEVQLMRLLPIKKSTALKVALFCTTLSGDTSDTGEGTVVVSYGVSLENAVLDQLLNLGRQLISDHVDLVLCQKVIHPSLKQFLNMHRIIAIDRIGVTLMEPLTKMTGTQPIGSLGSICPNSYGSVKDVCTAKFGSKHFFHLIPNEATICSLLLCNRNDTAWDELKLTCQTALHVLQLTLKEPWALLGGGCTETHLAAYIRHKTHNDPESILKDDECTQTELQLIAEAFCSALESVVGSLEHDGGEILTDMKYGHLWSVQADSPCVANWPDLLSQCGCGLYNSQEELNWSFLRSTRRPFVPQSCLPHEAVGSASNLTLDCLTAKLSGLQVAVETANLILDLSYVIEDKN
B5: BBS1, human full length, yeast two-hybrid prey (other, UniProt Q8NFJ9 1-593, looked up, not shown: large carriers)
chain: MAAASSSDSDACGAESNEANSKWLDAHYDPMANIHTFSACLALADLHGDGEYKLVVGDLGPGGQQPRLKVLKGPLVMTESPLPALPAAAATFLMEQHEPRTPALALASGPCVYVYKNLRPYFKFSLPQLPPNPLEQDLWNQAKEDRIDPLTLKEMLESIRETAEEPLSIQSLRFLQLELSEMEAFVNQHKSNSIKRQTVITTMTTLKKNLADEDAVSCLVLGTENKELLVLDPEAFTILAKMSLPSVPVFLEVSGQFDVEFRLAAACRNGNIYILRRDSKHPKYCIELSAQPVGLIRVHKVLVVGSTQDSLHGFTHKGKKLWTVQMPAAILTMNLLEQHSRGLQAVMAGLANGEVRIYRDKALLNVIHTPDAVTSLCFGRYGREDNTLIMTTRGGGLIIKILKRTAVFVEGGSEVGPPPAQAMKLNVPRKTRLYVDQTLREREAGTAMHRAFQTDLYLLRLRAARAYLQALESSLSPLSTTAREPLKLHAVVQGLGPTFKLTLHLQNTSTTRPVLGLLVCFLYNEALYSLPRAFFKVPLLVPGLNYPLETFVESLSNKGISDIIKVLVLREGQSAPLLSAHVNMPGSEGLAAA

The target of this assay is T1, full-length human nephrocystin-5 …. Description: direct yeast two-hybrid assay.
For B1, the binding result was “no binding”.

For the molecule B2, the binding result was “no binding”.

On to B3, for which the binding result is recorded as “no binding”.

In the case of B4, the binding result is listed as “no binding”.

Turning to B5, the binding result is listed as “no binding”.

These data come from patent publication US7838231 (REGENTS OF THE UNIVERSITY OF MICHIGAN, dated 2010).
